Results reported in US20250154198A1, “PEPTIDE INHIBITORS OF INTERLEUKIN-23 RECEPTOR” (Zealand Pharma A/S, priority 2021, published 2025).
Like-named read-outs stand apart in the source and are kept apart here. *1 amine or outer side, *2 acyl side, *3 side chain or, on linkers, in order; H or OH if unused. Bridges are numbered along the chain shown (N, C = ends). Primed or numbered codes have the meaning given here. Where no end group is shown, it is not given here. [ ]: non-standard residue; d: D form. 4‑Aminomethyl‑phenylacetyl = 4-aminomethyl-phenylacetyl unit, its amine closes the lactam, O=C(Cc1ccc(CN[*:1])cc1)[*:2]; 1,3‑dibromopropan‑2‑one(3) = linker giving 1,3-dithio-propan-2-one bridge -SCH2C(=O)CH2S- between Cys; 4‑Aminomethyl‑phenylacetyl″ = N-terminal cap residue, O=C(Cc1ccc(CN[*:1])cc1)[*:2]; 2Nal = N[C@@H](Cc1ccc2ccccc2c1)C(=O)O; AEF = NCCOc1ccc(C[C@H](N)C(=O)O)cc1; 3Pal = N[C@@H](Cc1cccnc1)C(=O)O; αMeL = CC(C)C[C@](C)(N)C(=O)O; CH2COCH2 = O=C(C[*:1])C[*:2]; αMeK = C[C@](N)(CCCCN)C(=O)O; 3Amb = NCc1cccc(C(=O)O)c1; Dab = NCC[C@H](N)C(=O)O

T1: Nluc-IL23R fusion protein (human, UniProt Q5VWK5 22-629)
T1 construct: range 22-629; Stably expressed in HEK293 cells; also called hIL-23R; human IL-23R fused to a Nanoluc luciferase enzyme; not shown: Nanoluc luciferase (Promega N1371 plasmid) at the N-terminus
T1 sequence (looked up): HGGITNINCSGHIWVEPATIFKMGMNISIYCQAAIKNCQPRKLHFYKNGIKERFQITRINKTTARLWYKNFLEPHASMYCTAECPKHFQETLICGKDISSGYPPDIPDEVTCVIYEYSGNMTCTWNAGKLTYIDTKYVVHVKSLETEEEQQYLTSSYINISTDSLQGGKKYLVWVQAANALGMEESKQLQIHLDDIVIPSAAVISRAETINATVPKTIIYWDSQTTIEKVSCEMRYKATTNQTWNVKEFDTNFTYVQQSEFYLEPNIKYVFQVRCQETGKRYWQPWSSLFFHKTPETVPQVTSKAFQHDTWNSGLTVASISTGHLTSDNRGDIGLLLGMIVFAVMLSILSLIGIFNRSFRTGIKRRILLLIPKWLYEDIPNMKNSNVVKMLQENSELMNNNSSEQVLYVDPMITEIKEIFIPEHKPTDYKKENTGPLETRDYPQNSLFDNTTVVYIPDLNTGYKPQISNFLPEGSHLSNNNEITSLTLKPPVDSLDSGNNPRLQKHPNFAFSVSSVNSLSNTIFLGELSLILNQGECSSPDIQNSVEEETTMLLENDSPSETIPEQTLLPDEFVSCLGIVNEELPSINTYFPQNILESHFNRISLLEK

T2: human IL-23R endogenously expressed on DB cells (CRL-2289) (human, UniProt Q5VWK5 24-629)
T2 sequence (looked up): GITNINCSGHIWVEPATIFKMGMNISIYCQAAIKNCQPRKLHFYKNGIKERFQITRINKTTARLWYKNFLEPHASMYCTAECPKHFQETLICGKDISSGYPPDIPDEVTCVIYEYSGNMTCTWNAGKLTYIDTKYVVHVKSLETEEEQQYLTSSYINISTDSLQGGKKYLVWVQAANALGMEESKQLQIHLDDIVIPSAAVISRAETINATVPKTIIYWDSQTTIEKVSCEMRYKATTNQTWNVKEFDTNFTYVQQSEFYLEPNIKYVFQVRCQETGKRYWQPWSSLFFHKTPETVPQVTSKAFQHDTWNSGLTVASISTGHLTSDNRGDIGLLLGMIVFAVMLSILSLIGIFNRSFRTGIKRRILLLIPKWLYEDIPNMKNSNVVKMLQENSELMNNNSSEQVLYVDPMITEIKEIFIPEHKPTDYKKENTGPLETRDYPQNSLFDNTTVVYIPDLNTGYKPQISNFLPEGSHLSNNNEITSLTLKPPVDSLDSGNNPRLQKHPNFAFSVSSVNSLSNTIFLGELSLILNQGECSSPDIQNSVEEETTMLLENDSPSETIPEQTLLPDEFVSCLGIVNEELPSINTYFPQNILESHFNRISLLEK


What was measured:
[1] = biological target: T1, Nluc-IL23R fusion protein; assay: BRET displacement of TAMRA-labelled peptide, Nluc-IL23R membranes
[2] = biological target: T2, human IL-23R endogenously expressed on …; assay: cell-based or functional assay
[3] = biological target: T1, Nluc-IL23R fusion protein; assay: BRET displacement of TAMRA-labelled peptide, Nluc-IL23R membranes; remark: listed apart in the source
Procedure: The plate was sealed with light impermeable plate seals, and incubated on a orbital shaker 400 rpm for 2 hours at room temperature. To determine the BRET ratio, the plate seal was removed and 25 μL of the Nanoluc substrate (Promega N1572) diluted 1:500 was added to each well and incubated for 1-2 minutes on an orbital shaker at 400 rpm. […] The BRET ratio was calculated as the fluorescence from the TAMRA/nanoluc bioluminescence. The IC₅₀ for each compound was determined by computer-aided curve fitting using a 4-parameter logistic (4PL) non-linear model.

Binder	Ki [1]	IC50 (pSTAT3) [2]	Ki [3]
[4‑Aminomethyl‑phenylacetyl]SCWQC[AEF][2Nal][αMeL]E[Dab]-NH2 (lactam (positions not given here); linker 3-6 via CH2COCH2; not fully specified (bridges); printed as [4-Aminomethyl-phenylacetyl](1c)*SC(2a)WQC(2a)[Y(2-aminoethoxy)][2-Nal][2-Me-Leu]E(1c)[Dab]-[NH2]) [Compound 82]	0.0665 nM	11.1 nM	
Ac-DESCWQCW[2Nal][αMeL]KNG-NH2 (lactam 2-11; linker 4-7 via CH2COCH2; SMILES CC(=O)N[C@@H](CC(=O)O)C(=O)N[C@H]1CCC(=O)NCCCC[C@@H](C(=O)N[C@@H](CC(N)=O)C(=O)NCC(N)=O)NC(=O)[C@](C)(CC(C)C)NC(=O)[C@H](Cc2ccc3ccccc3c2)NC(=O)[C@H](Cc2c[nH]c3ccccc23)NC(=O)[C@@H]2CSCC(=O)CSC[C@H](NC(=O)[C@H](CO)NC1=O)C(=O)N[C@@H](Cc1c[nH]c3ccccc13)C(=O)N[C@@H](CCC(N)=O)C(=O)N2) [Compound 59]		297 nM	139 nM
[3Amb]SCWQC[AEF][2Nal][αMeL]ER[3Pal]-NH2 (lactam (positions not given here); linker 3-6 via CH2COCH2; not fully specified (bridges); printed as [(3-Aminomethyl)benzoyl](1c)*SC(2a)WQC(2a)[Y(2-aminoethoxy)][2-Nal][2-Me-Leu]E(1c)R[3-(3-Pyridyl)-Ala]-[NH2]) [Compound 78]	0.0205 nM	0.132 nM	
[4‑Aminomethyl‑phenylacetyl]SCWQC[AEF][2Nal][αMeL]E[Dab][3Pal]-NH2 (lactam N-10; linker 3-6 via 1,3‑dibromopropan‑2‑one(3)) [Compound 120]	0.00938 nM	0.0542 nM	
[4‑Aminomethyl‑phenylacetyl]SEWQ[Dab][AEF][2Nal][αMeL]E[Dab]-NH2 (lactam N-10, 3-6) [Compound 125]	0.599 nM	21.2 nM	
[4‑Aminomethyl‑phenylacetyl]SCWQC[AEF][2Nal][αMeL]ER-NH2 (lactam N-10; linker 3-6 via CH2COCH2; SMILES CC(C)C[C@]1(C)NC(=O)[C@H](Cc2ccc3ccccc3c2)NC(=O)[C@H](Cc2ccc(OCCN)cc2)NC(=O)[C@@H]2CSCC(=O)CSC[C@H](NC(=O)[C@H](CO)NC(=O)Cc3ccc(cc3)CNC(=O)CC[C@@H](C(=O)N[C@@H](CCCNC(=N)N)C(N)=O)NC1=O)C(=O)N[C@@H](Cc1c[nH]c3ccccc13)C(=O)N[C@@H](CCC(N)=O)C(=O)N2) [Compound 52]	0.0475 nM	7.85 nM	
[4‑Aminomethyl‑phenylacetyl]SCWQC[AEF][2Nal][αMeL]ES-NH2 (lactam (positions not given here); linker 3-6 via CH2COCH2; not fully specified (bridges); printed as [4-Aminomethyl-phenylacetyl](1c)*SC(2a)WQC(2a)[Y(2-aminoethoxy)][2-Nal][2-Me-Leu]E(1c)S-[NH2]) [Compound 81]	0.318 nM	20.7 nM	
Ac-DESCWQCW[2Nal][αMeK]KENG-NH2 (lactam 2-11; linker 4-7 via CH2COCH2; SMILES CC(=O)N[C@@H](CC(=O)O)C(=O)N[C@H]1CCC(=O)NCCCC[C@@H](C(=O)N[C@@H](CCC(=O)O)C(=O)N[C@@H](CC(N)=O)C(=O)NCC(N)=O)NC(=O)[C@](C)(CCCCN)NC(=O)[C@H](Cc2ccc3ccccc3c2)NC(=O)[C@H](Cc2c[nH]c3ccccc23)NC(=O)[C@@H]2CSCC(=O)CSC[C@H](NC(=O)[C@H](CO)NC1=O)C(=O)N[C@@H](Cc1c[nH]c3ccccc13)C(=O)N[C@@H](CCC(N)=O)C(=O)N2) [Compound 61]		> 1 µM	436 nM
[4‑Aminomethyl‑phenylacetyl″]SEWQ[Dab][AEF][2Nal][αMeL]E[Dab][3Pal]-NH2 (lactam N-10, 3-6; SMILES CC(C)C[C@]1(C)NC(=O)[C@H](Cc2ccc3ccccc3c2)NC(=O)[C@H](Cc2ccc(OCCN)cc2)NC(=O)[C@@H]2CCNC(=O)CC[C@H](NC(=O)[C@H](CO)NC(=O)Cc3ccc(cc3)CNC(=O)CC[C@@H](C(=O)N[C@@H](CCN)C(=O)N[C@@H](Cc3cccnc3)C(N)=O)NC1=O)C(=O)N[C@@H](Cc1c[nH]c3ccccc13)C(=O)N[C@@H](CCC(N)=O)C(=O)N2) [Compound 122]	0.00541 nM	0.0277 nM	
[3Amb]SCWQC[AEF][2Nal][αMeL]E[dR]-NH2 (lactam N-10; linker 3-6 via CH2COCH2) [Compound 41]	2.31 nM	29.4 nM	
DEQCWQCYWXKR (HELM PEPTIDE1{[ac].D.E.Q.C.W.Q.C.Y.W.[CC(C)C[C@](C)(N[*:1])C(=O)[*:2]].K.R.[am]}|CHEM1{[O=C(C[*:1])C[*:2]]}$PEPTIDE1,PEPTIDE1,3:R3-12:R3|PEPTIDE1,CHEM1,5:R3-1:R1|PEPTIDE1,CHEM1,8:R3-1:R2$$$V2.0; SMILES CC(=O)N[C@@H](CC(=O)O)C(=O)N[C@H]1CCC(=O)NCCCC[C@@H](C(=O)N[C@@H](CCCNC(=N)N)C(N)=O)NC(=O)[C@](C)(CC(C)C)NC(=O)[C@H](Cc2c[nH]c3ccccc23)NC(=O)[C@H](Cc2ccc(O)cc2)NC(=O)[C@@H]2CSCC(=O)CSC[C@H](NC(=O)[C@H](CCC(N)=O)NC1=O)C(=O)N[C@@H](Cc1c[nH]c3ccccc13)C(=O)N[C@@H](CCC(N)=O)C(=O)N2) [Compound 55]		> 1 µM	272 nM
[4‑Aminomethyl‑phenylacetyl]SCWQC[AEF][2Nal][αMeL]E[dR]-NH2 (lactam (positions not given here); linker 3-6 via CH2COCH2; not fully specified (bridges); printed as [4-Aminomethyl-phenylacetyl](1c)*SC(2a)WQC(2a)[Y(2-aminoethoxy)][2-Nal][2-Me-Leu]E(1c)[{d}R]-[NH2]) [Compound 80]	0.15 nM	10.5 nM	
Ac-DESCWQCW[2Nal][αMeL]KENG-NH2 (lactam 2-11; linker 4-7 via CH2COCH2; SMILES CC(=O)N[C@@H](CC(=O)O)C(=O)N[C@H]1CCC(=O)NCCCC[C@@H](C(=O)N[C@@H](CCC(=O)O)C(=O)N[C@@H](CC(N)=O)C(=O)NCC(N)=O)NC(=O)[C@](C)(CC(C)C)NC(=O)[C@H](Cc2ccc3ccccc3c2)NC(=O)[C@H](Cc2c[nH]c3ccccc23)NC(=O)[C@@H]2CSCC(=O)CSC[C@H](NC(=O)[C@H](CO)NC1=O)C(=O)N[C@@H](Cc1c[nH]c3ccccc13)C(=O)N[C@@H](CCC(N)=O)C(=O)N2) [Compound 58]		597 nM	201 nM
Ac-DESCWQCW[2Nal][αMeL]KG-NH2 (lactam 2-11; linker 4-7 via CH2COCH2; SMILES CC(=O)N[C@@H](CC(=O)O)C(=O)N[C@H]1CCC(=O)NCCCC[C@@H](C(=O)NCC(N)=O)NC(=O)[C@](C)(CC(C)C)NC(=O)[C@H](Cc2ccc3ccccc3c2)NC(=O)[C@H](Cc2c[nH]c3ccccc23)NC(=O)[C@@H]2CSCC(=O)CSC[C@H](NC(=O)[C@H](CO)NC1=O)C(=O)N[C@@H](Cc1c[nH]c3ccccc13)C(=O)N[C@@H](CCC(N)=O)C(=O)N2) [Compound 60]		666 nM	212 nM
